From publication PMC10776578, “Epstein-Barr virus-driven B cell lymphoma mediated by a direct LMP1-TRAF6 complex” (Nature Communications, 2024)

B1: unnamed (parent)
chain 1: DHQIRELTAKMETQSMYVSELKRTIRTLEDKVAEIEAQQCNGIYIWKIGNFGMHLKCQEEEKPVVIHSPGFYTGKPGYKLCMRLHLQLPTAQRCANYISLFVHTMQGEYDSHLPWPFQGTIRLTILDQSEAPVRQNHEEIMDAKPELLAFQRPTIPRNPKGFGYVTFMHLEALRQRTFIKDDTLLVRCEVSTRFDMGSLRREGFQPRSTDAGV
chain 2: GGGPYAQGEDARMLSLVSKTEIEEDSFRQMPTEDEYMDRPSQ
B2: unnamed (parent)
chain 1: MSLLNCENSCGSSQSESDCCVAMASSCSAVTKDDSVGGTASTGNLSSSFMEEIQGYDVEFDPPLESKYECPICLMALREAVQTPCGHRFCKACIIKSIRDAGHKCPVDNEILLENQLFPDNFAKREILSLMVKCPNEGCLHKMELRHLEDHQAHCEFALMDCPQCQRPFQKFHINIHILKDCPRRQVSCDNCAASMAFEDKEIHDQNCPLANVICEYCNTILIREQMPNHYDLDCPTAPIPCTFSTFGCHEKMQRNHLARHLQENTQSHMRMLAQAVHSLSVIPDSGYISEVRNFQETIHQLEGRLVRQDHQIRELTAKMETQSMYVSELKRTIRTLEDKVAEIEAQQCNGIYIWKIGNFGMHLKCQEEEKPVVIHSPGFYTGKPGYKLCMRLHLQLPTAQRCANYISLFVHTMQGEYDSHLPWPFQGTIRLTILDQSEAPVRQNHEEIMDAKPELLAFQRPTIPRNPKGFGYVTFMHLEALRQRTFIKDDTLLVRCEVSTRFDMGSLRREGFQPRSTDAGV
chain 2: MEHDLERGPPGPRRPPRGPPLSSSLGLALLLLLLALLFWLYIVMSDWTGGALLVLYSFALMLIIIILIIFIFRRDLLCPLGALCILLLMITLLLIALWNLHGQALFLGIVLFIFGCLLVLGIWIYLLEMLWRLGATIWQLLAFFLAFFLDLILLIIALYLQQNWWTLLVDLLWLLLFLAILIWMYYHGQRHSDEHHHDDSLPHPQQATDDSGHESDSNSNEGRHHLLVSGAGDGPPLCSQNLGAPGGGPDNGPQDPDNTDDNGPQDPDNTDDNGPHDPLPQDPDNTDDNGPQDPDNTDDNGPHDPLPHSPSDSAGNDGGPPQLTEEVENKGGDQGPPLMTDGGGGHSHDSGHGGGDPHLPTLLLGSSGSGGDDDDPHGPVQLSYYD

Variants of: B1
Test: AlphaScreen
Conditions: with partner chain of the complex shown; parent: 100; read off a plot

chain 1 R83A was tested, and the percent of parent was 1%.

Variants of: B2
Test: co-immunoprecipitation, quantified immunoblot
Conditions: with partner chain of the complex shown; HEK293 cells; parent: 1.3e+07; read off a plot

Point of comparison: chain 1 R392A, response (relative intensity) 2.5e+06. Against it:
- chain 1 F471A — higher, 6e+06
- chain 1 Y473A — higher, 5.5e+06
- chain 1 K469A — higher, 1.8e+07
